According to the Human Domainome abundance scans (Beltran et al. 2025):
± gives the uncertainty stated by the source.

B1: Zinc finger MYM-type protein 2, residues 463 to 506; numbered along this chain, Q9UBW7 (parent)
chain: IMNCCEQCGEYLPSKGAGNNVLVIDGQQKRFCCQSCVSEYKQVG

Variants of: B1
Assay: abundance fitness (aPCA) (normalised: wild type 0, dead -1); higher = more abundant; growth selection in yeast, the domain comes from the species named
Conditions: Homo sapiens

Abundance fitness: each site, then its substitutions
G16: T 0.202 ± 0.18; R -0.562 ± 0.078; Q 0.07 ± 0.1; P -0.175 ± 0.14; A -0.06 ± 0.1; L -0.214 ± 0.08; E 0.136 ± 0.11; S -0.047 ± 0.12; M 0.007 ± 0.29; W -0.319 ± 0.093; V -0.272 ± 0.14; C -0.113 ± 0.085; H -0.249 ± 0.099
A17: D 0.012 ± 0.15; G -0.095 ± 0.095; Q -0.069 ± 0.1; P -0.274 ± 0.11; C -0.11 ± 0.13; K -0.521 ± 0.16; T -0.309 ± 0.33; E 0.116 ± 0.096; H -0.337 ± 0.15; R -0.628 ± 0.11; V -0.223 ± 0.11; L -0.188 ± 0.091
L12: W -0.467 ± 0.089; Y -0.444 ± 0.12; S -0.501 ± 0.13; R -0.498 ± 0.072; T -0.28 ± 0.097
V21: W -0.02 ± 0.11; S -0.153 ± 0.1; K 0.395 ± 0.35; E 0.128 ± 0.092; M -0.103 ± 0.11; G -0.129 ± 0.088; L -0.162 ± 0.11; N -0.397 ± 0.47; Q -0.172 ± 0.13; A -0.065 ± 0.098; D -0.014 ± 0.13; C -0.302 ± 0.23; P -0.402 ± 0.17; R -0.264 ± 0.086
D25: A -0.117 ± 0.12
S14: C -0.072 ± 0.16; Q -0.123 ± 0.12; W -0.454 ± 0.092; R -0.456 ± 0.089; G -0.098 ± 0.079; Y -0.802 ± 0.33; K -0.283 ± 0.16; T -0.09 ± 0.12; F -0.548 ± 0.18; D 0.241 ± 0.13; M -0.361 ± 0.12; P 0.33 ± 0.22; L -0.107 ± 0.076; E 0.13 ± 0.19
N20: D -0.248 ± 0.48; V -0.019 ± 0.083; L -0.103 ± 0.1; M -0.038 ± 0.1; K -0.209 ± 0.13; A -0.037 ± 0.11; H 0.087 ± 0.16; R -0.285 ± 0.086; W -0.191 ± 0.079; C 0 ± 0.11; G -0.119 ± 0.082; Y -0.065 ± 0.12
V23: M 0.18 ± 0.11; Y -0.093 ± 0.18; N -0.123 ± 0.1; D -0.017 ± 0.1; W -0.063 ± 0.086; L -0.235 ± 0.1; T 0.15 ± 0.13; F 0.23 ± 0.28; E 0.204 ± 0.12; I 0.031 ± 0.12; H -0.079 ± 0.12; G -0.107 ± 0.076; R -0.011 ± 0.085; A -0.121 ± 0.11; S 0.025 ± 0.12; K -0.052 ± 0.1; Q 0.181 ± 0.15
K15: S 0.114 ± 0.13; C -0.012 ± 0.092; L -0.094 ± 0.11; M 0.3 ± 0.19; Y 0.07 ± 0.21; W -0.124 ± 0.093; G 0.103 ± 0.075; H 0.119 ± 0.15; V 0.011 ± 0.1; A 0.089 ± 0.077; D 0.229 ± 0.18; P 0.189 ± 0.096
L22: F -0.184 ± 0.35; V -0.016 ± 0.09; D 0.001 ± 0.17; K -0.073 ± 0.12; N -0.163 ± 0.41; E 0.015 ± 0.1; P -0.059 ± 0.17; S -0.164 ± 0.13; W -0.187 ± 0.13; I -0.142 ± 0.18; C -0.258 ± 0.13; G -0.132 ± 0.068; A -0.072 ± 0.088; Y 0.165 ± 0.14; R -0.136 ± 0.083; Q -0.057 ± 0.13
I24: N -0.176 ± 0.2; S -0.09 ± 0.084; V -0.088 ± 0.12; C -0.124 ± 0.14; T 0.254 ± 0.15; P -0.126 ± 0.16; Q -0.177 ± 0.2; K -0.079 ± 0.1; W -0.05 ± 0.083; A 0.005 ± 0.094; F 0.052 ± 0.18; G -0.066 ± 0.084; M -0.122 ± 0.16; R -0.085 ± 0.077
N19: H -0.157 ± 0.11; W -0.212 ± 0.11; C -0.069 ± 0.12; G 0.006 ± 0.08; L -0.051 ± 0.1; F -0.023 ± 0.096; E 0.338 ± 0.14; R -0.249 ± 0.087; S 0.001 ± 0.12; Q -0.107 ± 0.12; K -0.287 ± 0.11; I -0.141 ± 0.13; M -0.061 ± 0.19
G18: S -0.347 ± 0.18; A 0.015 ± 0.13; C -0.247 ± 0.15; M -0.214 ± 0.13; W -0.197 ± 0.092; E 0.302 ± 0.12; L -0.432 ± 0.17; T -0.377 ± 0.17; P 0.007 ± 0.19; D 0.59 ± 0.5
P13: N -0.565 ± 0.23; E -0.171 ± 0.15; S -0.207 ± 0.12; Q -0.063 ± 0.11; H -0.187 ± 0.17; W -0.536 ± 0.13; G -0.278 ± 0.1; C 0.105 ± 0.43; L -0.438 ± 0.2; T -0.094 ± 0.13; R -0.515 ± 0.16; K -0.678 ± 0.45; V -0.669 ± 0.4; M -0.59 ± 0.14
